Experimental findings from US20090191186A1 (KALOBIOS PHARMACEUTICALS, published 2009) are described below.

Changes are numbered by the printed parent chain.

The labels stand for the following.
B1: Fab SEQ ID NOs: 5, 6 (Fab, V domains shown)
VH: QVQLVESGGGVVQPGRSLRLSCTASGFSFSSYGMHWVRQAPGKGLEWVAVIWYNGKEISYADSVKGRFTVSRDNPKNTLYLQMSSLRTEDTAVYYCARNRGDIYYDFTYAMDIWGQGTMVTVSS
VL: AIQLTQSPSFLSASVGDRVTITCRASQGISTYLAWYQQKPGKAPKLLIYAASSLQSGVPSRFSGSGSGTDFTLTISSLQPEDVATYYCQQFWSTPYTFGQGTKLEIK
B2: Fab SEQ ID NOs. 35. 36 (Fab, V domains shown)
VH: EVQLVESGGGVVQPGRSLRLSCAASGFTFSNYPMHWVRQAPGKGLEWVAVISYDGSEKWYADSVKGRFTISRDNSKNTLYLEMNSLRPEDTAVYYCARNRGDIYYDFTYAMDYWGQGTTVTVSS
VL: DIQLTQSPSTLSASVGDSVTITCRASEGVDRWLAWYQQKPGRAPKLLIYDASTLQSGVPSRFSGSGSGTEFSLTISSLQPDDVATYYCQHFWSTPYTFGQGTKLEIK
B3: Fab SEQ ID NOs: 13, 4 (Fab, V domains shown)
VH: QVQLVESGGGVVQPGRSLRLSCAASGFTFSSYPLHWVRQAPGKGLEWVSFISYDGSEKYYASSVKGRFTISRDNSENTLYLQMNSLRPEDTAVYYCARNRGDIYYDFTYAMDIWGQGTMVTVSS
VL: DIQMTQSPSSLSASVGDRVTITCRASQSISRWVAWYQQRPGKAPNLLIYDASSLKSGVPSRFSGSGSGTEFTLTISSLQPEDIATYYCQQFWSTPYTFGQGTKLEIK
B4: Fab SEQ ID NOs: 13, 10 (Fab, V domains shown)
VH: B3 VH
VL: B1 VL with A1D, A50D, S53A, D70E
B5: Fab SEQ ID NOs: 13, 37 (Fab, V domains shown)
VH: B3 VH
VL: B3 VL with S93G
B6: Fab SEQ ID NOs 3, 4 (Fab, V domains shown)
VH: B1 VH with R16G, T23A, S28T, S31T, Y32A
VL: B3 VL
B7: Fab SEQ ID NOs. 24, 26 (Fab, V domains shown)
VH: B2 VH with Y113I
VL: B2 VL with S93G

The target in the experiment is PcrV of the Type III secretion system on P. aeruginosa strain PA103 (Pseudomonas aeruginosa strain PA103). Description: cell-based or functional assay.
In the case of B1, the “IC50 (nM), TTSS-dependent cytotoxicity assay (PA103 killing of P3-X63-Ag8 cells)” value (shortened to “IC50 (nM)”) stood at 50.2 nM.

B2: the “IC50 (nM)” value turned out to be 61.4 nM.

B3: the “IC50 (nM)” value came out at 20 nM.

For B4, the “IC50 (nM)” value turned out to be 25.5 nM.

For the molecule B5, the “IC50 (nM)” value turned out to be 12 nM.

In the case of B6, the “IC50 (nM)” value was 35.1 nM.

Regarding B7, the “IC50 (nM)” value worked out at 25.5 nM.
